Source: patent US20060067940A1 (WASHINGTON UNIVERSITY, published 2006)

Biological target: T1, WNV E protein on virions of WNV New York strain (lineage I) (West Nile virus (New York strain), UniProt Q9Q6P4 291-791)
T1 sequence (looked up): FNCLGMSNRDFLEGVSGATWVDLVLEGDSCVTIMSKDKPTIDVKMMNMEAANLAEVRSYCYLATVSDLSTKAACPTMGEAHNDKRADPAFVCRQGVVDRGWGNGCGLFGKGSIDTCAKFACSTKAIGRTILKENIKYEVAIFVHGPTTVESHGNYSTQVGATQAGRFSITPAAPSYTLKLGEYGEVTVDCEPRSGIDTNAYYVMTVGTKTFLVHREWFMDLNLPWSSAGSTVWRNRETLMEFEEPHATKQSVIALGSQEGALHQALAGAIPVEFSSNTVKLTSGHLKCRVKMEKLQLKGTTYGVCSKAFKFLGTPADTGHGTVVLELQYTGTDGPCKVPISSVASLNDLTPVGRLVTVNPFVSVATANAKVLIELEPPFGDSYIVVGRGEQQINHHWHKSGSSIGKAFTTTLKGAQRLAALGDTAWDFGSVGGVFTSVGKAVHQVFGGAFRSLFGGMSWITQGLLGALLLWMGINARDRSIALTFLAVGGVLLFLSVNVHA
Test: cell-based or functional assay

B1: WNV E16 (monoclonal antibody produced by hybridoma clone E16 C4 E4, ATCC PTA-6050) (antibody, V domains shown)
VH: QVQLQQSGSELMKPGASVQISCKATGYTFSDYWIEWVKQRPGHGLEWIGDILCGTGRTRYNEKLKAMATFTADTSSNTAFMQLSSLTSEDSAVYYCARSASYGDYADYWGHGTTLTVSS
VL: DIVMTQSHKFMSTSVGDRVSITCKASQDVSTAVAWYQQKPGQSPKLLISWASTRHTGVPDRFTGSGSGTDYTLTISSVQAEDLALYYCQQHYTTPLTFGAGTKLELK
  PRNT assay, potency against human γ-globulin preparation: ~1000 fold
